Assay results reported in patent US10654893B2, “Self-assembling peptide compositions” (3-D MATRIX, LTD., priority 2014, dated 2020).

Tests used:
[1] = Time sweep test of gelation after adding DMEM or saline buffer; assay type: physicochemical
Protocol: FIG. 25 includes 1.5% IEIK13 (SEQ ID NO:3) data at pH 2.3, 2.6, 2.9 and 3.2. Time sweep tests were performed at 1 rad/sec and at 1 Pa with 20 mm plates and 500 μm gap distance. During time sweep tests, DMEM was added into the chamber surrounding the measuring plates to soak the peptides at time=0.
Time sweep tests were performed at 1 rad/sec and at 1 Pa with 20 mm plates and 500 μm gap distance. During time sweep tests, the saline buffer was added into the chamber surrounding the measuring plates to soak the peptides at time=0.

[2] = Formulation chart: concentration for desired storage modulus from linear trendline equations; assay type: physicochemical; settings: linear trendline equation
Text: In some embodiments, peptide compositions with a specific desired stiffness may be formulated to have a particular peptide concentration determined using a mathematical model (i.e., the modulus trend-line equation). A formulation chart of peptide compositions may relate their concentrations in deionized water to their specific storage moduli, for example as is presented below in Table 3A. From such a chart, one skilled in the art may formulate a peptide composition with desired rheological properties by selecting a particular peptide and an appropriate peptide concentration so that the formulated composition has a desired stiffness.

Substance: Arg-Ala-Asp-Ala-Arg-Ala-Asp-Ala-Arg-Ala-Asp-Ala-Arg-Ala-Asp-Ala [RADA16]
- Gelation on exposure to saline buffer ([1]; saline buffer, 0.15 M NaCl): no or negligible gelation
- Storage modulus response (gelation kinetics) ([1]; with pH adjustment, time sweep with DMEM (FIGS. 24 and 25)): immediate storage modulus increase
- Time without storage modulus increase ([1]; without pH adjustment (pH 2.2), time sweep with DMEM (FIG. 24)): 13 s
- Peptide concentration with deionized water to obtain desired storage modulus ([2]; storage modulus 25 Pa): 0.8
- Peptide concentration with deionized water to obtain desired storage modulus ([2]; storage modulus 50 Pa): 0.9
- Peptide concentration with deionized water to obtain desired storage modulus ([2]; storage modulus 75 Pa): 1.0
- Peptide concentration with deionized water to obtain desired storage modulus ([2]; storage modulus 100 Pa): 1.2
- Peptide concentration with deionized water to obtain desired storage modulus ([2]; storage modulus 125 Pa): 1.3
- Peptide concentration with deionized water to obtain desired storage modulus ([2]; storage modulus 150 Pa): 1.5
- Peptide concentration with deionized water to obtain desired storage modulus ([2]; storage modulus 175 Pa): 1.6
- Peptide concentration with deionized water to obtain desired storage modulus ([2]; storage modulus 200 Pa): 1.7
- Peptide concentration with deionized water to obtain desired storage modulus ([2]; storage modulus 225 Pa): 1.9
- Peptide concentration with deionized water to obtain desired storage modulus ([2]; storage modulus 250 Pa): 2.0
- Peptide concentration with deionized water to obtain desired storage modulus ([2]; storage modulus 275 Pa): 2.2
- Peptide concentration with deionized water to obtain desired storage modulus ([2]; storage modulus 300 Pa): 2.3
- Peptide concentration with deionized water to obtain desired storage modulus ([2]; storage modulus 325 Pa): 2.4
- Peptide concentration with deionized water to obtain desired storage modulus ([2]; storage modulus 350 Pa): 2.6
- Peptide concentration with deionized water to obtain desired storage modulus ([2]; storage modulus 375 Pa): 2.7
- Peptide concentration with deionized water to obtain desired storage modulus ([2]; storage modulus 400 Pa): 2.9
- Peptide concentration with deionized water to obtain desired storage modulus ([2]; storage modulus 425 Pa): 3.0
- Peptide concentration with deionized water to obtain desired storage modulus ([2]; storage modulus 500 Pa): 3.4
- Peptide concentration with deionized water to obtain desired storage modulus ([2]; storage modulus 600 Pa): 4.0
- Peptide concentration with deionized water to obtain desired storage modulus ([2]; storage modulus 700 Pa): 4.5
- Peptide concentration with deionized water to obtain desired storage modulus ([2]; storage modulus 800 Pa): 5.1
